Paper PMC7601328

Target: RNA polymerase holoenzyme (beta, beta', alpha, omega, sigma) (Escherichia coli) (UniProt P0A8V2+P0A8T7+P0A7Z4+P0A800+P00579)
Experiment: EMSA
Details: 40 mM Hepes-KOH pH 8, 50 mM KCl, 10 mM Mg acetate, 0.5 mM DTT, 0.005% NP40, 50 uM ATP, 30 C; ~0.3 pmol DNA and 7 pmol RNAP in 200 uL; time course, heparin …

Sequence: GTGCTGCGAAATCATCGGTGTAAATAGGGCTATATGCCGCGTCTTTTCTGGCTAATTTTATGAAAAGATATTTATTGGCGGCACAAAATAAAGAACAATTTTGAATTCCTTACATTCCTGGCTATTGCACAACTGAATTTAAGGCTCTATTATTACCTCAACAAACCACCCCAATATAAGTTTGAGATTACTACAATGAGCGAAGCACTTAAAATTCTGAA (double strand) [hns promoter fragment, 221 bp (-159 to +62)]
- binding: binds
